# In paper PMC8322138, “BRCA2 binding through a cryptic repeated motif to HSF2BP oligomers does not impact meiotic recombination” (Nature Communications, 2021):
# Several values for one entry are separate records, joined by “and”; a condition that tells them apart may be missing. Identical values can stand only once.
# B1: Human BRCA2 fragment F0 (S2213-Q2342, C2332T) (domain or fragment, UniProt P51587 2213-2342, looked up)
# chain: STYSKDSENYFETEAVEIAKAFMEDDELTDSKLPSHATHSLFTCPENEEMVLSNSRIGKRRGEPLILVGEPSIKRNLLNEFDRIIENQEKSLKASKSTPDGTIKDRRLFMHHVSLEPITTVPFRTTKERQ
# notes: BRCA2, human, residues 2213-2342 with C2332T; pET-22b fusion: BRCA2 fragment, TEV site, GB1, 6xHis; residues of the TEV site may remain at the C-terminus after cleavage (surmise); 15N- or 15N/13C-labelled for NMR; also called BRCA2-F0; source: E. coli BL21 DE3 Star, purified (HisTrap, TEV cleavage, SEC); not shown: GB1, C-terminal, cleaved; His6, C-terminal, cleaved
# B2: H3: HSF2BP fragment E122-V334, armadillo domain (protein)
# chain: EMGAAACTLLWGVSSSEEVVKAILGGDKALKFFSITGQTMESFVKSLDGDVQELDSDESQFVFALAGIVTNVAAIACGREFLVNSSRVLLDTILQLLGDLKPGQCTKLKVLMLMSLYNVSINLKGLKYISESPGFIPLLWWLLSDPDAEVCLHVLRLVQSVVLEPEVFSKSASEFRSSLPLQRILAMSKSRNPRLQTAAQELLEDLRTLEHNV
# modifications: left off: His6, end not stated, cleaved
# notes: HSF2BP fragment E122-V334, armadillo domain
# Assays:
# [1] = biological target: T1, armadillo domain of HSF2BP, from aa 122 to aa 334 (ARM) (human, UniProt O75031 122-334); experiment: ITC; HSF2BP or ARM in the cell at 10-20 uM, BRCA2 fragment in the syringe at 40-100 uM; 293 K; 25 mM Tris pH 7.5, 250 mM NaCl, 5 mM beta-mercaptoethanol; two replicates; conditions: both partners purified
# T1 construct: Free ARM is a dimer (SEC-MALS); four ARM with two F15X in the complex; A selenomethionine-labelled form was used for the deposited crystal structure; also called HSF2BP ARM; H3 (recombinant); source: E. coli BL21 DE3 Rosetta2, purified (HisTrap, TEV cleavage, SEC)
# T1 sequence (looked up): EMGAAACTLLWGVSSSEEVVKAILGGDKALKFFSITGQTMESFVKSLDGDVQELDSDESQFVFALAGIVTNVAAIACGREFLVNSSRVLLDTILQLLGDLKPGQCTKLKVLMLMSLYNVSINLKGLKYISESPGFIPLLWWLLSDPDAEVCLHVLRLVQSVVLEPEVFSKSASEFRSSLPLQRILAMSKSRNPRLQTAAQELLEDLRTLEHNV
# [2] = biological target: T2, Human full-length HSF2BP WT (human, UniProt O75031 1-334); experiment: as above; conditions: both partners purified
# T2 construct: HSF2BP, human, full length, wild type; pETM11 (6xHis-TEV) vector; purified as in Brandsma et al., Cell Rep 2019; also called HSF2BP FL; HFS2BP; source: E. coli BL21 DE3 Rosetta2, purified (HisTrap, TEV cleavage, SEC)
# T2 sequence (looked up): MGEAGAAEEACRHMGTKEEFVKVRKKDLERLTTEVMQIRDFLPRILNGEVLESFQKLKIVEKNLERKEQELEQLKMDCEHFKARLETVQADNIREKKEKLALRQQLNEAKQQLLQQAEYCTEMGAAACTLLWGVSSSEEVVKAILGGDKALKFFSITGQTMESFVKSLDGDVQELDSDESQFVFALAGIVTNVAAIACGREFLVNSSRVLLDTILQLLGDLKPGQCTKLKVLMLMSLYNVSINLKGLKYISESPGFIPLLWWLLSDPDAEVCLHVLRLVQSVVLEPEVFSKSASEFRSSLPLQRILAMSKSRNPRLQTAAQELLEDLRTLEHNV
# [3] = biological target: T3, ARM domain of HSF2BP (Homo sapiens, UniProt O75031); experiment: SEC-MALS of ARM free or bound to F15X; type: physicochemical
# T3 construct: The armadillo domain of HSF2BP, from aa 122 to aa 334; 6xHis-TEV (N, cleaved yes); made in house; host or cells: E. coli BL21 DE3 Rosetta2
# T3 sequence (O75031 122-334): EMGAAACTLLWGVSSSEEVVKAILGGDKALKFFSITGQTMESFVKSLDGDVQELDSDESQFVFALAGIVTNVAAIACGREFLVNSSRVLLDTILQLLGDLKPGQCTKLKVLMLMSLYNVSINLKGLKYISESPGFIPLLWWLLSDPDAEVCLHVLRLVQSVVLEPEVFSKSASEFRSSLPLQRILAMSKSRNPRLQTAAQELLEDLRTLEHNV
# Method: Size-exclusion chromatography (SEC) coupled to MALS was used in order to measure the molecular masses of the complexes in solution. Therefore, HSF2BP and ARM proteins were loaded in the presence and absence of the BRCA2 fragment F15X on a Superdex 200 10/300 GL (GE Healthcare) using a HPLC Shimadzu system coupled to MALS/QELS/UV/RI (Wyatt Technology). The chromatography buffer was 25 mM Tris-HCl buffer, pH 7.5, 250 mM NaCl, 5 mM β-mercaptoethanol. The proteins were injected at 0.8–1 mg/ml in 100 μl. Data were analyzed using the ASTRA software; a calibration was performed with BSA as a standard.
# [4] = tested on: BRCA2 (Flag-F9); experiment: Co-immunoprecipitation of GFP-HSF2BP variants with Flag-BRCA2 F9; type: cell-based, human; conditions: transient HEK293T / stable HeLa, anti-GFP beads, immunoblot
# From the text: Expression constructs for producing point mutation and truncation variants of HS2BP and BRCA2 in human cells were engineered as described before[16] in the PiggyBac vectors by Gibson assembly. For transient expression into HEK293T cells plasmid DNA was transfected using calcium precipitation method or PEI transfection. For stable integration into HeLa cells, PiggyBac expression vectors were co-lipofected together with PiggyBac transposase plasmid (hyPBase[45]) with Lipofectamine 3000 (Thermo Fisher).
# Cells were washed twice in ice-cold PBS and lysed in situ in NETT buffer (100 mM NaCl, 50 mM Tris pH 7.5, 5 mM EDTA pH 8.0, 0.5% Triton-X100) supplemented immediately before use with protease inhibitor cocktail (Roche) and 0.4 mg/ml Pefabloc (Roche) (NETT++); 450 µl NETT++ buffer was used per 145 mm dish ES cells, 1 ml for HeLa and HEK293T. After 5–10 min, cells were scraped off and collected in 1.5 ml microcentrifuge tubes; lysis was continued for additional 20–30 min on ice, then mixtures were centrifuged (15 min, 4 °C, 14,000 × g) and the supernatant (input) was added to washed anti-GFP beads (Chromotek). Beads and lysates were incubated 2–4 h at 4 °C while rotating, washed three times in NETT++ buffer and bound proteins were eluted by boiling in 2x Sample buffer. Immunoblotting was performed following standard procedures with the following antibodies: anti-GFP mAb (Roche, #11814460001), anti-GFP pAb (Abcam #ab290 and Invitrogen #A11122), anti-RAD51[46], anti-BRCA2 mAb Ab1 OP-95 (Millipore #OP95), anti-BRCA2 (Abcam #27976), anti-Flag (M2 antibody, Sigma, F3165 and F1804). For quantitative immunoblotting fluorescently labeled secondary antibodies were used: anti-mouse CF680 (Sigma #SAB460199), anti-rabbit CF770 (Sigma #SAB460215); membranes were scanned using Odyssey CLx imaging system (LI-COR).
Molecule,Kd [1],dH [1],stoichiometry N [1],Kd [2],dH [2],stoichiometry N [2],oligomeric state of ARM ([3]; SEC-MALS and SEC-SAXS),"molecular weight of species in solution ([3]; SEC-MALS, Superdex 200 10/300 GL, 25 mM Tris-HCl pH 7.5, 250 mM NaCl, 5 mM β-mercaptoethanol)",binding to BRCA2 (co-precipitation) [4]
B1,31 nM and 25 nM,-8.3 kcal/mol and -11.9 kcal/mol,0.45 and 0.49,1.3 nM,-11 kcal/mol and -10.9 kcal/mol,0.43 and 0.47,–,–,–
B2,–,–,–,–,–,–,dimeric,48 kDa,minimal interaction region
